Data reported in US20250059292A1 (JCR PHARMACEUTICALS, published 2025).
Changes are numbered by the printed parent chain.

B1: mscFv3-GS3-hI2S (conjugate in which hI2S is bound to the C-terminus of mouse anti-mouse transferrin receptor single chain antibody mscFv 3 via the linker of … (scFv)
chain: EVQLVESGGGLVQPGNSLTLSCVASGFTFSNYGMHWIRQAPKKGLEWIAMIAYDSSKMNYADTVKGRFTISRDNSKNTLYLEMNSLRSEDTAMYYCAVPTAHYVVDVWGQGVSVTVSSGGGGSGGGGSGGGGSDIQMTQSPASLSASLEEIVTITCQASQDIGNWLAWYQQKPGKSPQLLIYGATSLADGVPSRFSGSRSGTQFSLKISRVQVEDIGIYYCLQAYNTPWTFGGGTKLELKRGGGGSGGGGSGGGGSSETQANSTTDALNVLLIIVDDLRPSLGCYGDKLVRSPNIDQLASHSLLFQNAFAQQAVCAPSRVSFLTGRRPDTTRLYDFNSYWRVHAGNFSTIPQYFKENGYVTMSVGKVFHPGISSNHTDDSPYSWSFPPYHPSSEKYENTKTCRGPDGELHANLLCPVDVLDVPEGTLPDKQSTEQAIQLLEKMKTSASPFFLAVGYHKPHIPFRYPKEFQKLYPLENITLAPDPEVPDGLPPVAYNPWMDIRQREDVQALNISVPYGPIPVDFQRKIRQSYFASVSYLDTQVGRLLSALDDLQLANSTIIAFTSDHGWALGEHGEWAKYSNFDVATHVPLIFYVPGRTASLPEAGEKLFPYLDPFDSASQLMEPGRQSMDLVELVSLFPTLAGLAGLQVPPRCPVPSFHVELCREGKNLLKHFRFRDLEEDPYLPGNPRELIAYSQYPRPSDIPQWNSDKPSLKDIKIMGYSIRTIDYRYTVWVGFNPDEFLANFSDIHAGELYFVDSDPLQDHNMYNDSQGGDLFQLLMP
notes: scFv-enzyme fusion, recombinant from CHO cells; also called mscFv 3-hI2S conjugate
B2: mscFv2-GS3-hI2S (conjugate in which hI2S is bound to the C-terminus of mouse anti-mTfRscFv antibody 2 via the linker of SEQ ID NO: 4) (scFv)
chain: B1 chain with Y182A, Y225A
notes: scFv-enzyme fusion, recombinant from CHO cells; also called mouse anti-mTfRscFv antibody 2-hI2S conjugate
B3: mscFv-GS3-hI2S (conjugate in which human iduronate-2-sulfatase is bound to the C-terminus of a mouse anti-mouse transferrin receptor single chain antibody via … (scFv)
chain: B1 chain with A52Y, A101S
notes: scFv-enzyme fusion, expressed as a recombinant protein in CHO cells and collected from the culture supernatant; also called mouse anti-mTfRscFv antibody-hI2S conjugate
B4: hI2S-mscFv2 (conjugate in which mouse anti-mTfRscFv antibody 2 is bound to the C-terminus of hI2S) (scFv)
chain: SETQANSTTDALNVLLIIVDDLRPSLGCYGDKLVRSPNIDQLASHSLLFQNAFAQQAVCAPSRVSFLTGRRPDTTRLYDFNSYWRVHAGNFSTIPQYFKENGYVTMSVGKVFHPGISSNHTDDSPYSWSFPPYHPSSEKYENTKTCRGPDGELHANLLCPVDVLDVPEGTLPDKQSTEQAIQLLEKMKTSASPFFLAVGYHKPHIPFRYPKEFQKLYPLENITLAPDPEVPDGLPPVAYNPWMDIRQREDVQALNISVPYGPIPVDFQRKIRQSYFASVSYLDTQVGRLLSALDDLQLANSTIIAFTSDHGWALGEHGEWAKYSNFDVATHVPLIFYVPGRTASLPEAGEKLFPYLDPFDSASQLMEPGRQSMDLVELVSLFPTLAGLAGLQVPPRCPVPSFHVELCREGKNLLKHFRFRDLEEDPYLPGNPRELIAYSQYPRPSDIPQWNSDKPSLKDIKIMGYSIRTIDYRYTVWVGFNPDEFLANFSDIHAGELYFVDSDPLQDHNMYNDSQGGDLFQLLMPEVQLVESGGGLVQPGNSLTLSCVASGFTFSNYGMHWIRQAPKKGLEWIAMIAYDSSKMNYADTVKGRFTISRDNSKNTLYLEMNSLRSEDTAMYYCAVPTAHYVVDVWGQGVSVTVSSGGGGSGGGGSGGGGSDIQMTQSPASLSASLEEIVTITCQASQDIGNWLAWYQQKPGKSPQLLIAGATSLADGVPSRFSGSRSGTQFSLKISRVQVEDIGIYYCLQAANTPWTFGGGTKLELKR
notes: Enzyme-scFv fusion, recombinant from CHO cells

Key:
[1] = biological target: T1, mouse transferrin receptor extracellular domain (position 87 to position 763 of SEQ ID NO: 39) (mouse, UniProt Q62351 87-763); assay: ELISA: mouse TfR extracellular domain coated on the plate, detected with anti-I2S monoclonal antibody and HRP-labeled secondary antibody
T1 construct: Coated on the ELISA plate at 10 ug/mL; also called mouse TfR; mTfR
T1 sequence (Q62351 87-763): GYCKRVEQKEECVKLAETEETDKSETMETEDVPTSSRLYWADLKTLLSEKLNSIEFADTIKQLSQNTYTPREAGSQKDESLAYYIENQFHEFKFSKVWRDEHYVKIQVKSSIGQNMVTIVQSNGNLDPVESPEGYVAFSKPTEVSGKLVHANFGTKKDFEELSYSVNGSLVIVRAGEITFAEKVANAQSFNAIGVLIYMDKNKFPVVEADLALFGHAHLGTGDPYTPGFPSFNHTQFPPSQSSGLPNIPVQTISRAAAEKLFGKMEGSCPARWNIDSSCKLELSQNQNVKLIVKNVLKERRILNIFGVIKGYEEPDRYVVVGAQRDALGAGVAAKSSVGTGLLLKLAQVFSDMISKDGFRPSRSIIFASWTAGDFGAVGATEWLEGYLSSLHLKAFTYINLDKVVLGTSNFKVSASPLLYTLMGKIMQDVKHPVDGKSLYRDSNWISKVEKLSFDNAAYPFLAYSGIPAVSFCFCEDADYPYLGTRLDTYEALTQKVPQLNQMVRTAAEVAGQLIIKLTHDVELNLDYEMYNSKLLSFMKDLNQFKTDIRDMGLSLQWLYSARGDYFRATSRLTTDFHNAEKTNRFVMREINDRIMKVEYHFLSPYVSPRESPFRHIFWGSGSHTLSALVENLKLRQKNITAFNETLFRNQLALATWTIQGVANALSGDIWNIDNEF
Description: The recombinant proteins of mscFv3-GS3-hI2S obtained by an ordinary method using CHO cells were measured for their binding activity to mouse transferrin receptor by the ELISA method. The ELISA method was generally performed in the following manner. To each well of a 96-well microtiter plate (Nunc), 100 μL of a mouse transferrin receptor extracellular domain having an amino acid sequence from position 87 to position 763 of an amino acid sequence represented by SEQ ID NO: 39 diluted with 0.05 M bicarbonate buffer (pH 9.6) to a concentration of 10 μg/mL was added, and the plate was allowed to stand at room temperature for at least 1 hour to adsorb the antibody to the plate. Then, 300 μL of TBS containing 1% BSA and 0.05% Tween20 was added to each well, and the plate was allowed to stand at room temperature for 1 hour. Each well was washed three times with TBS containing 0.05% Tween20 (TBS-T). Then, a solution containing mscFv3-GS3-hI2S was diluted using TBS containing 0.1% BSA and 0.05% Tween20 to a concentration of mscFv3-GS3-hI2S of 200, 66.7, 22.2, 7.41, 2.47, 0.82, and 0.27 nM, and 100 μL of the diluted solution was added to each well. The plate was allowed to stand at room temperature for at least 1 hour. […] Then, 100 μL of a stop solution (1 N hydrochloride) was added to each well, and the absorbance at 450 nm for each well was measured using a plate reader (MOLECULAR DEVICES).

[2] = biological target: T1, mouse transferrin receptor …; assay: ELISA: mouse TfR extracellular domain coated on the plate, detected with anti-hI2S monoclonal antibody and HRP-labeled secondary antibody
Description: The binding activities of the obtained three types of proteins, mscFv-GS3-hI2S, mscFv2-GS3-hI2S, and hI2S-mscFv2, to the mouse TfR receptor were measured by the ELISA method. The ELISA method was generally performed in the following manner. To each well of a 96-well microtiter plate (Nunc), 100 μL of a mouse transferrin receptor extracellular domain having an amino acid sequence from position 87 to position 763 of an amino acid sequence represented by SEQ ID NO: 39 diluted with 0.05 M bicarbonate buffer (pH 9.6) to a concentration of 10 μg/mL was added, and the plate was allowed to stand at room temperature for at least 1 hour to adsorb the antibody to the plate. Then, 300 μL of TBS containing 1% BSA and 0.05% Tween20 was added to each well, and the plate was allowed to stand at room temperature for 1 hour. Each well was washed three times with TBS containing 0.05% Tween20 (TBS-T), followed by dilution with TBS containing 0.1% BSA and 0.05% Tween20 to 300, 100, 33.33, 11.11, 3.70, 1.23, 0.41, or 0.14 nM for mscFv-GS3-hI2S, 600, 200, 66.67, 22.22, 7.41, 2.47, 0.82, or 0.27 nM for mscFv2-GS3-hI2S, and 1200, 400, 133.33, 44.44, 14.81, 4.94, 1.65, or 0.55 nM for hI2S-mscFv2, and 100 μL of each thereof was added to each well. The plate was allowed to stand at room temperature for at least 1 hour. After the plate was washed three times with TBS-T, anti-hI2S monoclonal antibodies were diluted to 0.5 μg/mL with TBS containing 0.1% BSA and 0.05% Tween20, 100 μL thereof was added to each well, and the plate was allowed to stand at room temperature for at least 1 hour. The plate was washed three times with the TBS-T, then 100 μL of an HRP-labeled anti-human IgG polyclonal antibody (Bethyl) solution diluted to 50 ng/mL with TBS containing 0.1% BSA and 0.05% Tween20 was added to each well, and the plate was allowed to stand at room temperature for at least 1 hour. […] Then, 100 μL of a stop solution (1 N hydrochloride) was added to each well, and the absorbance at 450 nm for each well was measured using a plate reader (SpectraMax iD3, MOLECULAR DEVICES).

Binder | EC50 [1] [nM] | EC50 [2] [nM]
B1 | 4.4 | 
B2 |  | 13.2
B3 |  | 2.4
B4 |  | 96.7
